The test system of assay [1] is rat epididymal adipocytes. Description: Lipolytic activity in rat adipocytes. As to conditions: concentrations between 233 and 700 nM. The assay is classed as cell-based. As to the method: Lipolytic Activity in Rat Adipocytes—White adipocytes were prepared from finely minced epididymal adipose tissue of male Wistar rats (400 g) using collagenase digestion, as described (Beck S A, et al. Production of lipolytic and proteolytic factors by a murine tumor-producing cachexia in the host. Cancer Res 47:5919-5923, 1987), Lipolytic activity was determined by incubating 10^5-2×10^5 adipocytes for 2 h in 1 ml Krebs-Ringer bicarbonate buffer, pH 7.2, and the extent of lipolysis was determined by measuring the glycerol released (Wieland O. Glycerol U V method. Methods of Enzymatic Analysis, edited by Bergmeyer H U, Academic Press, London, pp 1404-1409, 1974). Spontaneous glycerol release was measured by incubating adipocytes alone. Lipolytic activity was expressed as μmol glycerol released/10^5 adipocytes/2 h.

For another assay, the system named is murine myotubes. Nature of the assay: Protein degradation and synthesis in myotubes subjected to high glucose. The assay is classed as cell-based. As to the method:
FIGS. 18A and 18B is a graphical diagram showing phenylalanine release (FIG. 18A) and protein synthesis (FIG. 18B) in C2Cl2 myotubes treated with and without ZAG for 4 h in the presence of various concentrations of glucose. Statistically significant c, P<0.001 from control; f, P<0.001 from glucose alone.
Statistically significant b, P<0.01 and c, P<0.001 from control; e, P<0.05 and f, P<0.001 from glucose alone.
Statistically significant b, P<0.01 and c, P<0.001 from control; e, P<0.05 and f, P<:0.001 from glucose alone; I, P<0.001 from glucose+SR.
This utilizes murine myotubes subjected. to high concentrations of glucose (10 or 25 mM).

Assay [2] relates to protein expression in WAT, BAT and gastrocnemius muscle. Nature of the assay: Western blot of WAT, BAT and gastrocnemius muscle of rats treated with ZAG. It counts as in vivo, Wistar rats. As for the experimental part: Samples of cytosolic protein (10 μg) were resolved on 12% sodium dodecylsuiphate polyacrylamide gel electrophoresis and the proteins were then transferred onto 0.45 μm nitrocellulose menibranes, which had been blocked with 5% N,Tarvel in ids-buffered saline, pH 7.5, at 4° C. overnight, and following four 15 min washes with 0.1% Tween in PBS, incubation with the secondary antibody was performed for 1 h at room temperature. Development was by ECL.
(A western blot detects proteins with antibodies after separation by electrophoresis.)

The nature of assay [3]: Daily i.v. ZAG in mature male Wistar rats for 10 days (body weight, composition, plasma metabolites). It counts as in vivo. As to the method:
Animals Rais Mature male Wistar rats (one year old from our own colony) weighing 540 ±82.5 g were housed individually and treated once daily i. v., with either ZAG in PBS (100 μl) (50 μg per 100 g body weight), or with PBS (100 μl) as a control. Both food and water intake and body weight were measured daily. Animals were given free access to food (Special Diet Services, Essex, UK) and water ad libitum. The animal experiment was carried out under the welfare conditions imposed by the British Home Office. After 10 days treatment the animals were terminated and the body composition determined. Animals were heated to 80-90° C. for 7 days until constant weight was achieved. The water content was then determined from the difference between the wet and dry weight. Lipids were extracted from the dry carcass using a sequence of chloroform:methanol (1:1), ethanolla.cetone (1:1) and diethyl ether (120 ml of each) as described by Lundholm et al (14). The solvents were evaporated and the fat weighed. The non-fat carcass mass was calculated as the difference between the initial weight of the carcass and the weight of water and fat.
Serum Metabolite Determinations—Non-esterified fatty acids (NEFA) were determined using a Wako-ASC-ACOD kit (Wako Chemical GmbH, Neuss, Germany). Triglycerides were determined using a Triglyceride kit (Sigma Chemical Co., Poole, United Kingdom) and 3-hydroxybutyrate by a quantitative enzymatic determination kit (Sigma). Glucose was measured using a glucose analyser (Beckman, Irvine, Calif.) and glycerol was determined enzymatically using the method of Wieland as described in “Methods of Enzymatic Analysis” (Ed, Bergmeyer, H. U.) Vol. 3, pp1404-1409, published by Academic Press, London (1974).

Marks after values point to notes of the source that are not given here.

B1: Zinc-α2-glycoprotein (protein, listed as Homo sapiens)
chain: QENQDGRYSLTYIYTGLSKHVEDVPAFQALGSLNDLQFFRYNSKDRKSQPMGLWRQVEGMEDWKEDSQLQKAREDMETLKDIVEYYNDSNGSHVLQGRFGCEIENNRSSGAFWKYYYDGKDYIEFNKEIPAWVPFDPAAQITKQKWEAEPVYVQRAKAYLEEECPATLRKYLKYSKNILDRQDPPSVVVTSHQAPGEKKKLKCLAYDFYPGKIDVHWTRAGQVQEPELRGDVLHNGNGTYQSWVVVAVPPQDTAPYSCHVQHSSLAQPLVVPWEAS
notes: recombinant human Zinc-α2-glycoprotein, lipid mobilizing factor, expressed in HEK293F cells
For B1, in assay [1], the glycerol release entry is “dose-related increase”. Further, the “high glucose induced increase in protein degradation and depression of protein synthesis” value in the assay on murine myotubes (ZAG 2.5 μg/ml, glucose 10 or 25 mM) was “completely attenuated”. The “protein degradation induced by 10 and 25 mM glucose” value in the assay on murine myotubes (myotubes) is “attenuated”. In addition, the “expression of glucose transporter 4 (GLUT4) in BAT, WAT and skeletal muscle” value in assay [2] (10 days) is “increased expression”. Besides, the “expression of phosphorylated forms of PKR and eIF2 α-subunit in gastrocnemius muscle” value in assay [2] (total amount did not change) is recorded as “significant reduction”. Besides, the Starting weight in assay [3] (male rats, before treatment) came to 530 ± 45 g. For the same molecule, the “Triglycerides (plasma)” value in assay [3] (rats treated for 10 days) is reported as 1.1 ± 0.09^a mmol/l. In addition, the “decrease in plasma levels of non-esterified fatty acids (NEFA)” value in assay [3] (rats, 10 days) amounted to 55%. Also, the “elevation in body temperature” value in assay [3] (rats, significant within 24 h of first administration) worked out at 0.4 °C.

Source of the values: patent US20210315969A1, “GLYCOPROTEINS HAVING LIPID MOBILIZING PROPERTIES AND THERAPEUTIC USES THEREOF” (Aston University, priority 2008, published 2021).
